Measurements from article PMC6751202, “An aggregon in conductin/axin2 regulates Wnt/β-catenin signaling and holds potential for cancer therapy” (Nature Communications, 2019).

Molecular target: the molecule itself
Experiment: native gel or EMSA; recombinant GST-RGS Cdt and GST-RGS Cdt QV-PS purified from bacteria; PAGE under non-denaturing conditions, Western blot

B1: GST-RGS Cdt (domain or fragment, mouse, UniProt O88566 67-208, looked up)
chain: GRASPDSPLTRWTKSLHSLLGDQDGAYLFRTFLEREKCVDTLDFWFACNGFRQMNLKDTKTLRVAKAIYKRYIENNSVVSKQLKPATKTYIRDGIKKQQIGSVMFDQAQTEIQAVMEENAYQVFLTSDIYLEYVRSGGENTA
notes: RGS domain of mouse conductin/axin2, amino acids 67-208; Cloned into pGEX-6P-1, which as far as I know puts GST at the N-terminus; GST itself can dimerise; also called isolated conductin RGS domain; recombinant GST-RGS Cdt; source: Rosetta (DE3) bacteria, purified (glutathione beads, eluted with free glutathione)
Q: Does B1 bind?
A: Result: binds
